Common to all, as to assay: flow cytometry, alanine-scan library in HEK-293T, with cytochalasin B
In one experiment the target is T1, hsGLUT4 D506A (human, UniProt P14672 1-509).
T1 sequence: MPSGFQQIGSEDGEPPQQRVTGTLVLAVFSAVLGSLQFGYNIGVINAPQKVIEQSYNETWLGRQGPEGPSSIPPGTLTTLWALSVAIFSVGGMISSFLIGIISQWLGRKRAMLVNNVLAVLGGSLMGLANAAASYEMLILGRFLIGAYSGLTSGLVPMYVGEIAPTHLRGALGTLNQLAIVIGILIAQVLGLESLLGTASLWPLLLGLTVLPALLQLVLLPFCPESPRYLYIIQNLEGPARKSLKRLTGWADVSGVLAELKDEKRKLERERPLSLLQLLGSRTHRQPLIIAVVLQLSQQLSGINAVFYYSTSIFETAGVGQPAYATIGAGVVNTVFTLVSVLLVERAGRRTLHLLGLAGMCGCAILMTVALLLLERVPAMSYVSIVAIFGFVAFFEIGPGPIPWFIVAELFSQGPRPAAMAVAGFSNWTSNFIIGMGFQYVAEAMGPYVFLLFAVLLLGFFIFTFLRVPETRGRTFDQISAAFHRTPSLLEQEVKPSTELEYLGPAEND
The method, boiled down: (§1)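 HEK-293T cells expressing individual GLUT4 alanine mutants were stained 48 h post-transfection with anti-GLUT4 scFv MAbs (2 μg/ml), then biotinylated secondary and streptavidin-PerCP, and read by high-throughput flow cytometry. Where used, cytochalasin B (10 uM final) was given for 30 min before and during primary antibody staining.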

A further experiment addresses T2, hsGLUT4 R169A (human, UniProt P14672 1-509).
T2 sequence: T1 sequence with R169A, A506D
The essentials:
as §1

The target in the next experiment is T3, hsGLUT4 P224A (human, UniProt P14672 1-509).
T3 sequence: T1 sequence with P224A, A506D
The essentials:
as §1

Another experiment has as its target T4, hsGLUT4 Y309A (human, UniProt P14672 1-509).
T4 sequence: T1 sequence with Y309A, A506D
The method, boiled down:
as §1

Changes are numbered by the printed parent chain.

B1: AB102 (Fc fusion)
scFv: ALTQPSSVSANLGGTVKITCSGGGSYGYGWYQQKSPGSAPVTVIYSNDQRPSDIPSRFSGSKSGSTATLTITGVRAEDEAIYYCGSTDSDYVGIFGAGTTLTVLGQSSRSSGGGGSSGGGGSAVTLDESGGGLQTPGGTLSLVCKASGFDFSSYATIWVRQAPGKGLEWVAGISGTGTGSSTGYAPAVKGRATISRDNGQSTVRLQLNNLRAEDTGSYFCAKSTGYGDSWIYPDSIDAWGHGTEVIVSS
notes: also called MAb AB102; not shown: Fc fragment of human IgG1, cloned in frame with the scFv
For the molecule B1, the “% of binding to wild type GLUT4” value with hsGLUT4 D506A is 60%; with hsGLUT4 R169A, 77%; with hsGLUT4 P224A it was 29%; with hsGLUT4 Y309A, 24%.

(Values after US20210238276A1 (INTEGRAL MOLECULAR, published 2021).)
